Reference: ChEMBL document CHEMBL2073963, “Transport of methotrexate (MTX) and folates by multidrug resistance protein (MRP) 3 and MRP1: effect of polyglutamylation on MTX transport” (Cancer Res, 2001)

B1: Multidrug resistance associated protein (Homo sapiens), Q96QA9 (protein)
chain: MDALCGSGELGSKFWDSNLSVHTENPDLTPCFQNSLLAWVPCIYLWVALPCYLLYLRHHCRGYIILSHLSKLKMVLGVLLWCVSWADLFYSFHGLVHGRAPAPVFFVTPLVVGVTMLLATLLIQYERLQGVQSSGVLIIFWFLCVVCAIVPFRSKILLAKAEGEISDPFRFTTFYIHFALVLSALILACFREKPPFFSAKNVDPNPYPETSAGFLSRLFFWWFTKMAIYGYRHPLEEKDLWSLKEEDRSQMVVQQLLEAWRKQEKQTARHKASAAPGKNASGEDEVLLGARPRPRKPSFLKALLATFGSSFLISACFKLIQDLLSFINPQLLSILIRFISNPMAPSWWGFLVAGLMFLCSMMQSLILQHYYHYIFVTGVKFRTGIMGVIYRKALVITNSVKRASTVGEIVNLMSVDAQRFMDLAPFLNLLWSAPLQIILAIYFLWQNLGPSVLAGVAFMVLLIPLNGAVAVKMRAFQVKQMKLKDSRIKLMSEILNGIKVLKLYAWEPSFLKQVEGIRQGELQLLRTAAYLHTTTTFTWMCSPFLVTLITLWVYVYVDPNNVLDAEKAFVSVSLFNILRLPLNMLPQLISNLTQASVSLKRIQQFLSQEELDPQSVERKTISPGYAITIHSGTFTWAQDLPPTLHSLDIQVPKGALVAVVGPVGCGKSSLVSALLGEMEKLEGKVHMKGSVAYVPQQAWIQNCTLQENVLFGKALNPKRYQQTLEACALLADLEMLPGGDQTEIGEKGINLSGGQRQRVSLARAVYSDADIFLLDDPLSAVDSHVAKHIFDHVIGPEGVLAGKTRVLVTHGISFLPQTDFIIVLADGQVSEMGPYPALLQRNGSFANFLCNYAPDEDQGHLEDSWTALEGAEDKEALLIEDTLSNHTDLTDNDPVTYVVQKQFMRQLSALSSDGEGQGRPVPRRHLGPSEKVQVTEAKADGALTQEEKAAIGTVELSVFWDYAKAVGLCTTLAICLLYVGQSAAAIGANVWLSAWTNDAMADSRQNNTSLRLGVYAALGILQGFLVMLAAMAMAAGGIQAARVLHQALLHNKIRSPQSFFDTTPSGRILNCFSKDIYVVDEVLAPVILMLLNSFFNAISTLVVIMASTPLFTVVILPLAVLYTLVQRFYAATSRQLKRLESVSRSPIYSHFSETVTGASVIRAYNRSRDFEIISDTKVDANQRSCYPYIISNRWLSIGVEFVGNCVVLFAALFAVIGRSSLNPGLVGLSVSYSLQVTFALNWMIRMMSDLESNIVAVERVKEYSKTETEAPWVVEGSRPPEGWPPRGEVEFRNYSVRYRPGLDLVLRDLSLHVHGGEKVGIVGRTGAGKSSMTLCLFRILEAAKGEIRIDGLNVADIGDPILFSGTLRMNLDPFGSYSEEDIWWALELSHLHTFVSSQPAGLDFQCSEGGENLSVGQRQLVCLARALLRKSRILVLDEATAAIDLETDNLIQATIRTQFDTCTVLTIAHRLNTIMDYTRVLVLDKGVVAEFDSPANLIAARGIFYGMARDAGLA
B2: Multidrug resistance-associated protein 1 (Homo sapiens) (protein)
chain: MALRGFCSADGSDPLWDWNVTWNTSNPDFTKCFQNTVLVWVPCFYLWACFPFYFLYLSRHDRGYIQMTPLNKTKTALGFLLWIVCWADLFYSFWERSRGIFLAPVFLVSPTLLGITMLLATFLIQLERRKGVQSSGIMLTFWLVALVCALAILRSKIMTALKEDAQVDLFRDITFYVYFSLLLIQLVLSCFSDRSPLFSETIHDPNPCPESSASFLSRITFWWITGLIVRGYRQPLEGSDLWSLNKEDTSEQVVPVLVKNWKKECAKTRKQPVKVVYSSKDPAQPKESSKVDANEEVEALIVKSPQKEWNPSLFKVLYKTFGPYFLMSFFFKAIHDLMMFSGPQILKLLIKFVNDTKAPDWQGYFYTVLLFVTACLQTLVLHQYFHICFVSGMRIKTAVIGAVYRKALVITNSARKSSTVGEIVNLMSVDAQRFMDLATYINMIWSAPLQVILALYLLWLNLGPSVLAGVAVMVLMVPVNAVMAMKTKTYQVAHMKSKDNRIKLMNEILNGIKVLKLYAWELAFKDKVLAIRQEELKVLKKSAYLSAVGTFTWVCTPFLVALCTFAVYVTIDENNILDAQTAFVSLALFNILRFPLNILPMVISSIVQASVSLKRLRIFLSHEELEPDSIERRPVKDGGGTNSITVRNATFTWARSDPPTLNGITFSIPEGALVAVVGQVGCGKSSLLSALLAEMDKVEGHVAIKGSVAYVPQQAWIQNDSLRENILFGCQLEEPYYRSVIQACALLPDLEILPSGDRTEIGEKGVNLSGGQKQRVSLARAVYSNADIYLFDDPLSAVDAHVGKHIFENVIGPKGMLKNKTRILVTHSMSYLPQVDVIIVMSGGKISEMGSYQELLARDGAFAEFLRTYASTEQEQDAEENGVTGVSGPGKEAKQMENGMLVTDSAGKQLQRQLSSSSSYSGDISRHHNSTAELQKAEAKKEETWKLMEADKAQTGQVKLSVYWDYMKAIGLFISFLSIFLFMCNHVSALASNYWLSLWTDDPIVNGTQEHTKVRLSVYGALGISQGIAVFGYSMAVSIGGILASRCLHVDLLHSILRSPMSFFERTPSGNLVNRFSKELDTVDSMIPEVIKMFMGSLFNVIGACIVILLATPIAAIIIPPLGLIYFFVQRFYVASSRQLKRLESVSRSPVYSHFNETLLGVSVIRAFEEQERFIHQSDLKVDENQKAYYPSIVANRWLAVRLECVGNCIVLFAALFAVISRHSLSAGLVGLSVSYSLQVTTYLNWLVRMSSEMETNIVAVERLKEYSETEKEAPWQIQETAPPSSWPQVGRVEFRNYCLRYREDLDFVLRHINVTINGGEKVGIVGRTGAGKSSLTLGLFRINESAEGEIIIDGINIAKIGLHDLRFKITIIPQDPVLFSGSLRMNLDPFSQYSDEEVWTSLELAHLKDFVSALPDKLDHECAEGGENLSVGQRQLVCLARALLRKTKILVLDEATAAVDLETDDLIQSTIRTQFEDCTVLTIAHRLNTIMDYTRVIVLDKGEIQEYGAPSDLLQQRGLFYSMAKDAGLV

Columns and labels:
Format in all cases: functional, cell membranes
[1] = substrate: CN(Cc1cnc2nc(N)nc(N)c2n1)c1ccc(C(=O)N[C@@H](CCC(=O)O)C(=O)O)cc1; experiment: (§1) TP_TRANSPORTER: uptake in membrane vesicles from MRP3-expressing HEK293 cells; conditions: Membrane vesicle
[2] = substrate: Nc1nc(=O)c2c([nH]1)NCC(CNc1ccc(C(=O)N[C@@H](CCC(=O)O)C(=O)O)cc1)N2C=O; experiment: as §1; conditions: Membrane vesicle
[3] = substrate: Nc1nc(=O)c2nc(CNc3ccc(C(=O)N[C@@H](CCC(=O)O)C(=O)O)cc3)cnc2[nH]1; experiment: as §1; conditions: Membrane vesicle
[4] = substrate: CN(Cc1cnc2nc(N)nc(N)c2n1)c1ccc(C(=O)N[C@@H](CCC(=O)O)C(=O)O)cc1; experiment: TP_TRANSPORTER: uptake in membrane vesicle from MRP1-expressing NIH3T3 cells

Protein	Km [1]	Km [2]	Km [3]	Km [4]
B1	620 µM	1740 µM	1960 µM	
B2				2150 µM
